Measurements published in publication doi:10.1101/2023.08.08.552478 (bioRxiv, 2023).
Primed or numbered codes have the meaning given here. No end group written: not given here. FITC′ = fluorescein isothiocyanate

Target: PEX5 TPR domain (C-terminal cargo-binding TPR domain of human PEX5L) (human, UniProt P50542-1 315-639)
Test: fluorescence polarisation

{FITC′}-SAPKIPSWQIPVKSPSPS [N-terminal FITC conjugated SAPKIPSWQIPVKSPSPS PEX14 peptide]
Kd: 250 µM
